Reference: patent US20230293647A1 (AUTOLUS, published 2023)

Assays:
Assay in all cases: cell microarray
KCNAB2 = molecular target: T1, KCNAB2 (human, UniProt Q13303)
T1 sequence (looked up): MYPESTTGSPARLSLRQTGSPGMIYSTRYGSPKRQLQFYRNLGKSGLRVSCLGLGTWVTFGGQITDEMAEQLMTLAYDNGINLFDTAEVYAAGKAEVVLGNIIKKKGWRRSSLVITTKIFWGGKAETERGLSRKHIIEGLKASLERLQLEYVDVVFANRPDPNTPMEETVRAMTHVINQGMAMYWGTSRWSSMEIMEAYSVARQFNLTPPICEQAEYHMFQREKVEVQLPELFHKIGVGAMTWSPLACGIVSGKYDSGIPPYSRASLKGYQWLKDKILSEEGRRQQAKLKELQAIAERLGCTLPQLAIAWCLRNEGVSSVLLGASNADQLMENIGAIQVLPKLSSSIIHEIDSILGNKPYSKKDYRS

FcγRIa (cell microarray) = FcγRIa (cell microarray) (human, UniProt P12314 16-374)
IGF1 = IGF1 (human, UniProt P05019)
ADGRG7 = molecular target: T2, ADGRG7 (human, UniProt Q96K78)
T2 sequence (looked up): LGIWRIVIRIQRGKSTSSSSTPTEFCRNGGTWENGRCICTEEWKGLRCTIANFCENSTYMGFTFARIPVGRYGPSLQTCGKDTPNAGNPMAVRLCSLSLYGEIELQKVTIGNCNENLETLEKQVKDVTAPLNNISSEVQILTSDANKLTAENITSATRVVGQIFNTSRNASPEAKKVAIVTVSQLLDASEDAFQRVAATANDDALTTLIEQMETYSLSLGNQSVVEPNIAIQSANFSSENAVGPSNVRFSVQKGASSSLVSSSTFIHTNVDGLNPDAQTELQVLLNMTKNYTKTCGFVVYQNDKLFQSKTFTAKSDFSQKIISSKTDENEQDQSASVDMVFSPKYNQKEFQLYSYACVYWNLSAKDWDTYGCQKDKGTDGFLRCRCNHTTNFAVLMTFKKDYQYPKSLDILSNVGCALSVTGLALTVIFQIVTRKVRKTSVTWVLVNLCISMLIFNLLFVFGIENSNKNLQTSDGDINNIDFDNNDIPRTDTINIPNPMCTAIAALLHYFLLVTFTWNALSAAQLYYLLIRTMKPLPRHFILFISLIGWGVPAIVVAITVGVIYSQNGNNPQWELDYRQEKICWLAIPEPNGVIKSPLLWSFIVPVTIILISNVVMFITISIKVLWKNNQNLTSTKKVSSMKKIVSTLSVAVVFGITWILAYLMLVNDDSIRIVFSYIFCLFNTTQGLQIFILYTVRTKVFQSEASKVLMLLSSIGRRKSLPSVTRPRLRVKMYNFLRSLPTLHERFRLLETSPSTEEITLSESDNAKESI

CD86 (cell microarray) = molecular target: T3, CD86 (cell microarray) (human, UniProt P42081 24-329)
T3 sequence (looked up): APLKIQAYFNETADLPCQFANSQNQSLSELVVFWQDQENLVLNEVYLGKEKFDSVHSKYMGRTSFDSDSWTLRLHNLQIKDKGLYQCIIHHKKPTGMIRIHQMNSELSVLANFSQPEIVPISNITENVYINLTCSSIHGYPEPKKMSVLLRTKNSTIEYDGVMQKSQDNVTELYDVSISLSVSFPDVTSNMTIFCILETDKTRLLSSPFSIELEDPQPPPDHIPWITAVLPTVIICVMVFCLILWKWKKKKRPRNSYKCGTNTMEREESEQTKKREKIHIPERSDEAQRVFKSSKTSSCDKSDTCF

Measured: binding result

FcγRIa (cell microarray), sequence (P12314 16-374): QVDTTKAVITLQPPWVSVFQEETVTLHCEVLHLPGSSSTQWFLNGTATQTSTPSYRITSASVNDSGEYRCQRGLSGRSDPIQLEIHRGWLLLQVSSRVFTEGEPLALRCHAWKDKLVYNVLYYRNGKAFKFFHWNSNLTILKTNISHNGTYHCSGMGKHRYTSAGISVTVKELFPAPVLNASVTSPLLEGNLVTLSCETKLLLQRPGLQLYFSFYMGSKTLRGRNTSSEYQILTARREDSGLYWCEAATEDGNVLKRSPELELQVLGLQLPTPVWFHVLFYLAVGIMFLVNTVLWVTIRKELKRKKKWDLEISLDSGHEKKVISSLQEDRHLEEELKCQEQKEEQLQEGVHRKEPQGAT

B1: Fc LALA-PG only construct with the ACE2 domain omitted (other)
chain: EPKSCDKTHTCPPCPAPEAAGGPSVFLFPPKPKDTLMISRTPEVTCVVVDVSHEDPEVKFNWYVDGVEVHNAKTKPREEQYNSTYRVVSVLTVLHQDWLNGKEYKCKVSNKALGAPIEKTISKAKGQPREPQVYTLPPSREEMTKNQVSLTCLVKGFYPSDIAVEWESNGQPENNYKTTPPVLDSDGSFFLYSKLTVDKSRWQQGNVFSCSVMHEALHNHYTQKSLSLSPGK
notes: also called control Fc (LALA-PG)
no binding: all assays above
